“And” between values parts separate entries of the source, which are not always exact repeats. Equal entries are not always repeated.
T1: minor histocompatibility antigen HA-1, immunogenic H variant peptide on HLA-A*02:01 (human)
T1 peptide: VLHDDLLEA


How the values were obtained:
[1] = biological target: T1, minor histocompatibility antigen HA-1, …; assay: CD69 on TCR-transduced Jurkat J.RT3-T3.5-CD8; overnight with A*0201 LCLs (1:1) and titrated HA-1 H peptide; given as a range, upper bound given; full-length, on cells
[2] = biological target: T1, minor histocompatibility antigen HA-1, …; assay: multimer staining

Row | Binder | EC50 of peptide [1] | binding result [2]
1 | TCR H (TCR, V domains shown) Valpha: GENVEQHPSTLSVQEGDSAVIKCTYSDSASNYFPWYKQELGKRPQLIIDIRSNVGEKKDQRIAVTLNKTAKHFSLHITETQPEDSAVYFCAAPLAGGGADGLTFGKGTHLIIQP Vbeta: DTGVSQDPRHKITKRGQNVTFRCDPISEHNRLYWYRQTLGQGPEFLTYFQNEAQLEKSRLLSDRFSAERPKGSFSTLEIQRTEQGDSAMYLCASSTTLITGYTFGSGTRLTVV | ≤ 100 ng/mL and ≤ 100 nM | –
2 | TCR J (TCR, V domains shown) Valpha: QKEVEQDPGPLSVPEGAIVSLNCTYSNSAFQYFMWYRQYSRKGPELLMYTYSSGNKEDGRFTAQVDKSSKYISLFIRDSQPSDSATYLCAMRATSGTYKYIFGTGTRLKVLA Vbeta: DTGVSQDPRHKITKRGQNVTFRCDPISEHNRLYWYRQTLGQGPEFLTYFQNEAQLEKSRLLSDRFSAERPKGSFSTLEIQRTEQGDSAMYLCAVPGGSSYNEQFFGPGTRLTVL | ≤ 100 ng/mL and ≤ 100 nM | –
3 | TCR K (TCR, V domains shown) Valpha: DAKTTQPNSMESNEEEPVHLPCNHSTISGTDYIHWYRQLPSQGPEYVIHGLTSNVNNRMASLAIAEDRKSSTLILHRATLRDAAVYYCILRAGSGTYKYIFGTGTRLKVLA Vbeta: DTGVSQDPRHKITKRGQNVTFRCDPISEHNRLYWYRQTLGQGPEFLTYFQNEAQLEKSRLLSDRFSAERPKGSFSTLEIQRTEQGDSAMYLCASSPGTVYNEQFFGPGTRLTVL | ≤ 100 ng/mL and ≤ 100 nM | –
4 | TCR P (TCR, V domains shown) Valpha: AQSVSQHNHHVILSEAASLELGCNYSYGGTVNLFWYVQYPGQHLQLLLKYFSGDPLVKGIKGFEAEFIKSKFSFNLRKPSVQWSDTAEYFCAVRDSGAGSYQLTFGKGTKLSVIP Vbeta: DTGVSQDPRHKITKRGQNVTFRCDPISEHNRLYWYRQTLGQGPEFLTYFQNEAQLEKSRLLSDRFSAERPKGSFSTLEIQRTEQGDSAMYLCASLTGTVYNEQFFGPGTRLTVL | ≤ 100 ng/mL and ≤ 100 nM | –
5 | TCR G (TCR, V domains shown) Valpha: SQQGEEDPQALSIQEGENATMNCSYKTSINNLQWYRQNSGRGLVHLILIRSNEREKHSGRLRVTLDTSKKSSSLLITASRAADTASYFCAGTGANNLFFGTGTRLTVIP Vbeta: DTGVSQDPRHKITKRGQNVTFRCDPISEHNRLYWYRQTLGQGPEFLTYFQNEAQLEKSRLLSDRFSAERPKGSFSTLEIQRTEQGDSAMYLCASSLIRGETQYFGPGTRLLVL | ≤ 100 ng/mL and ≤ 100 nM | –
6 | TCR Q (TCR, V domains shown) Valpha: GENVEQHPSTLSVQEGDSAVIKCTYSDSASNYFPWYKQELGKRPQLIIDIRSNVGEKKDQRIAVTLNKTAKHFSLHITETQPEDSAVYFCAASNPTGANSKLTFGKGITLSVRP Vbeta: DTGVSQDPRHKITKRGQNVTFRCDPISEHNRLYWYRQTLGQGPEFLTYFQNEAQLEKSRLLSDRFSAERPKGSFSTLEIQRTEQGDSAMYLCASSLVRNEKLFFGSGTQLSVL | ≤ 1000 ng/mL and ≤ 1 µM | –
7 | TCR N (TCR, V domains shown) Valpha: GENVEQHPSTLSVQEGDSAVIKCTYSDSASNYFPWYKQELGKRPQLIIDIRSNVGEKKDQRIAVTLNKTAKHFSLHITETQPEDSAVYFCAAIVGNQFYFGTGTSLTVIP Vbeta: DTGVSQDPRHKITKRGQNVTFRCDPISEHNRLYWYRQTLGQGPEFLTYFQNEAQLEKSRLLSDRFSAERPKGSFSTLEIQRTEQGDSAMYLCASSETTLSEQFFGPGTRLTVL | ≤ 100 ng/mL and ≤ 100 nM | –
8 | TCR I (TCR, V domains shown) Valpha: KQEVTQIPAALSVPEGENLVLNCSFTDSAIYNLQWFRQDPGKGLTSLLLIQSSQREQTSGRLNASLDKSSGRSTLYIAASQPGDSATYLCAVRGTTSGTYKYIFGTGTRLKVLA Vbeta: DTGVSQDPRHKITKRGQNVTFRCDPISEHNRLYWYRQTLGQGPEFLTYFQNEAQLEKSRLLSDRFSAERPKGSFSTLEIQRTEQGDSAMYLCASSFLAGETQYFGPGTRLLVL | ≤ 100 ng/mL and ≤ 100 nM | –
9 | TCR M (TCR, V domains shown) Valpha: KQEVTQIPAALSVPEGENLVLNCSFTDSAIYNLQWFRQDPGKGLTSLLLIQSSQREQTSGRLNASLDKSSGRSTLYIAASQPGDSATYLCAVRGSTSGTYKYIFGTGTRLKVLA Vbeta: DTGVSQDPRHKITKRGQNVTFRCDPISEHNRLYWYRQTLGQGPEFLTYFQNEAQLEKSRLLSDRFSAERPKGSFSTLEIQRTEQGDSAMYLCASSLVAGETQYFGPGTRLLVL | ≤ 100 ng/mL and ≤ 100 nM | –
10 | TCR O (TCR, V domains shown) Valpha: GENVEQHPSTLSVQEGDSAVIKCTYSDSASNYFPWYKQELGKRPQLIIDIRSNVGEKKDQRIAVTLNKTAKHFSLHITETQPEDSAVYFCAMRNNNDMRFGAGTRLTVKP Vbeta: DTGVSQDPRHKITKRGQNVTFRCDPISEHNRLYWYRQTLGQGPEFLTYFQNEAQLEKSRLLSDRFSAERPKGSFSTLEIQRTEQGDSAMYLCASSLTTLDTQYFGPGTRLTVL | ≤ 100 ng/mL and ≤ 100 nM | –
11 | TCR L (TCR, V domains shown) Valpha: KQEVTQIPAALSVPEGENLVLNCSFTDSAIYNLQWFRQDPGKGLTSLLLIQSSQREQTSGRLNASLDKSSGRSTLYIAASQPGDSATYLCAVTRTGANNLFFGTGTRLTVIP Vbeta: DTGVSQDPRHKITKRGQNVTFRCDPISEHNRLYWYRQTLGQGPEFLTYFQNEAQLEKSRLLSDRFSAERPKGSFSTLEIQRTEQGDSAMYLCASSLGVLGIGYTFGSGTRLTVV | ≤ 100 ng/mL and ≤ 100 nM | –
12 | TCR B (TCR, V domains shown) Valpha: SQQGEEDPQALSIQEGENATMNCSYKTSINNLQWYRQNSGRGLVHLILIRSNEREKHSGRLRVTLDTSKKSSSLLITASRAADTASYFCATAPGSGTYKYIFGTGTRLKVLA Vbeta: DTGVSQDPRHKITKRGQNVTFRCDPISEHNRLYWYRQTLGQGPEFLTYFQNEAQLEKSRLLSDRFSAERPKGSFSTLEIQRTEQGDSAMYLCAAPPDTYNSPLHFGNGTRLTVT | ≤ 100 ng/mL and ≤ 100 nM | –

Further lines, results first:

Row | EC50 of peptide [1] | binding result [2] | Binder
13 | ≤ 1000 ng/mL and ≤ 1 µM | – | TCR T (TCR, V domains shown) Valpha: SQQGEEDPQALSIQEGENATMNCSYKTSINNLQWYRQNSGRGLVHLILIRSNEREKHSGRLRVTLDTSKKSSSLLITASRAADTASYFCATPSGNTPLVFGKGTRLSVIA Vbeta: DTGVSQDPRHKITKRGQNVTFRCDPISEHNRLYWYRQTLGQGPELLTYFQNEAQLEKSRLLSDRFSAERPKGSFSTLEIQRTEQGDSAMYLCASSQLAGVIEQFFGPGTRLTVL
14 | – | recognises | TCR A (TCR, V domains shown) Valpha: AQSVAQPEDQVNVAEGNPLTVKCTYSVSGNPYLFWYVQYPNRGLQFLLKYITGDNLVKGSYGFEAEFNKSQTSFHLKKPSALVSDSALYFCAVRGGSYKYIFGTGTRLKVLA Vbeta: DTGVSQDPRHKITKRGQNVTFRCDPISEHNRLYWYRQTLGQGPEFLTYFQNEAQLEKSRLLSDRFSAERPKGSFSTLEIQRTEQGDSAMYLCASTPGTVYNEQFFGPGTRLTVL
15 | ≤ 1000 ng/mL and ≤ 1 µM | – | TCR S (TCR, V domains shown) Valpha: DAKTTQPPSMDCAEGRAANLPCNHSTISGNEYVYWYRQIHSQGPQYIIHGLKNNETNEMASLIITEDRKSSTLILPHATLRDTAVYYCIVRASTSGTYKYIFGTGTRLKVLA Vbeta: DTGVSQDPRHKITKRGQNVTFRCDPISEHNRLYWYRQTLGQGPEFLTYFQNEAQLEKSRLLSDRFSAERPKGSFSTLEIQRTEQGDSAMYLCASSPGTVYNEQFFGPGTRLTVL
16 | – | recognises | TCR D (TCR, V domains shown) Valpha: AQSVAQPEDQVNVAEGNPLTVKCTYSVSGNPYLFWYVQYPNRGLQFLLKYITGDNLVKGSYGFEAEFNKSQTSFHLKKPSALVSDSALYFCAVRAPTSGTYKYIFGTGTRLKVLA Vbeta: DTGVSQDPRHKITKRGQNVTFRCDPISEHNRLYWYRQTLGQGPEFLTYFQNEAQLEKSRLLSDRFSAERPKGSFSTLEIQRTEQGDSAMYLCASSLVSGNEQFFGPGTRLTVL
17 | – | recognises | TCR E (TCR, V domains shown) Valpha: AQSVAQPEDQVNVAEGNPLTVKCTYSVSGNPYLFWYVQYPNRGLQFLLKYITGDNLVKGSYGFEAEFNKSQTSFHLKKPSALVSDSALYFCAVRGPTSGTYKYIFGTGTRLKVLA Vbeta: DTGVSQDPRHKITKRGQNVTFRCDPISEHNRLYWYRQTLGQGPEFLTYFQNEAQLEKSRLLSDRFSAERPKGSFSTLEIQRTEQGDSAMYLCASSLVSGNEQFFGPGTRLTVL
18 | – | recognises | TCR C (TCR, V domains shown) Valpha: KQEVTQIPAALSVPEGENLVLNCSFTDSAIYNLQWFRQDPGKGLTSLLLIQSSQREQTSGRLNASLDKSSGRSTLYIAASQPGDSATYLCAVRPRTSGTYKYIFGTGTRLKVLA Vbeta: DTGVSQDPRHKITKRGQNVTFRCDPISEHNRLYWYRQTLGQGPEFLTYFQNEAQLEKSRLLSDRFSAERPKGSFSTLEIQRTEQGDSAMYLCASTELSGNTIYFGEGSWLTVV
19 | ≤ 1000 ng/mL and ≤ 1 µM | – | TCR R (TCR, V domains shown) Valpha: SQQGEEDPQALSIQEGENATMNCSYKTSINNLQWYRQNSGRGLVHLILIRSNEREKHSGRLRVTLDTSKKSSSLLITASRAADTASYFCATEMNSNYQLIWGAGTKLIIKP Vbeta: DTGVSQDPRHKITKRGQNVTFRCDPISEHNRLYWYRQTLGQGPEFLTYFQNEAQLEKSRLLSDRFSAERPKGSFSTLEIQRTEQGDSAMYLCASSPLKGSNYGYTFGSGTRLTVV
20 | – | recognises | TCR V (TCR, V domains shown) Valpha: AQTVTQSQPEMSVQEAETVTLSCTYDTSENNYYLFWYKQPPSRQMILVIRQEAYKQQNATENRFSVNFQKAAKSFSLKISDSQLGDTAMYFCALYSGAGSYQLTFGKGTKLSVIP Vbeta: DTGVSQDPRHKITKRGQNVTFRCDPISEHNRLYWYRQTLGQGPEFLTYFQNEAQLEKSRLLSDRFSAERPKGSFSTLEIQRTEQGDSAMYLCASSLAAGMNTEAFFGQGTRLTVV
21 | – | recognises | TCR F (TCR, V domains shown) Valpha: GENVEQHPSTLSVQEGDSAVIKCTYSDSASNYFPWYKQELGKRPQLIIDIRSNVGEKKDQRIAVTLNKTAKHFSLHITETQPEDSAVYFCAAHLTGGGNKLTFGTGTQLKVEL Vbeta: DTGVSQDPRHKITKRGQNVTFRCDPISEHNRLYWYRQTLGQGPEFLTYFQNEAQLEKSRLLSDRFSAERPKGSFSTLEIQRTEQGDSAMYLCASSSRAGGETQYFGPGTRLLVL

Reference: patent publication US20240270813A1 (UNIVERSITY OF PITTSBURGH OF THE COMMONWEALTH SYSTEM OF …, published 2024)
